For this test, the target named is PrP-CFP (mouse PrP(23-231) fused to CFP) (mouse) (UniProt P04925). Briefly: FRET or BRET. In general terms: In BRET a luciferase serves as donor, and the signal depends on an acceptor being close.

On to “PrP-YFP (mouse PrP(23-231) fused to YFP) (from UniProt P04925 23-231) (domain or fragment)”, for which the FRET efficiency amounted to 31%.

These data come from article PMC10531723.
